Data reported in patent US20250034594A1, “RNA-GUIDED GENOME RECOMBINEERING AT KILOBASE SCALE” (THE BOARD OF TRUSTEES OF THE LELAND STANFORD JUNIOR …, priority 2021, published 2025).

Legend:
Format in all cases: cell-based
gene editing with dCas9 = experiment: Screen of 322 new SSAP proteins, gene editing activity with dCas9 (Table 5); set-up: dCas9 with SSAP activity: scale not given here
Summary of the method: (§1)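 Read-out is gene editing activity. Candidates come from sequence data mining, are made synthetically, and are tested alongside either nuclease-active Cas9 or catalytically dead dCas9.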

gene editing with Cas9 = experiment: Screen of 322 new SSAP proteins, gene editing activity with Cas9 (Table 5); set-up: Cas9 with SSAP activity: scale not given here
Summary of the method: as §1

[1] = system: gene editing with Cas9 and dCas9; experiment: Screen of 322 new SSAP proteins, activity across all experiments (Cas9 and dCas9, Table 5); set-up: scale not given here
Summary of the method: as §1

Row | Molecule | dCas9 with SSAP activity (gene editing with dCas9) | Cas9 with SSAP activity (gene editing with Cas9) | Cas9 with SSAP activity (normalized) (gene editing with Cas9) | Activity across all experiments [1] | dCas9 with SSAP activity (normalized) (gene editing with dCas9)
1 | SSAP_269: SEQ ID NO: 438; Candidatus Parcubacteria bacterium (protein, Candidatus Parcubacteria bacterium) TEYKRPQQPEQTKMLSAKLNQAGAPNKVSSFDVQLRDWFKKHSRKMQTLAGSKEEANKIITSLIFVAQRNPKLMTCTMESIGECLMQSAQLKLYPGPLQECAYVPFGNRATFMPQYQGLCKLAYNSGVVRSIATEVVYANDLFEFELGTNAYLRHVPTLSDNRGERIAAWCVVKTTHGEVIIVKPISFIEGIRKRSPAGNKKDSPWNTSDDDYDAMARKTVLKQALKTIPKSSDLAAAIQVDNAVESGSVDNVVTHIEPVTDPTPEETKE | −9.789 | −7.746 | −2.190 | −8.768 | 
2 | SSAP_118: SEQ ID NO: 287; Kribbella albertanoniae (protein, listed as Kribbella albertanoniae) ATADSVREELARSKEVERTQPKASNADNVIGLINRSLPEIAKALPGHVKPERIARIATTAVRVTPKLADCTQASFLGALLTAAQLGLEPNTPTGEAYLLPFGRNVQLIIGYRGYIKLANQSGQVRNIMAMTVYENDHFDYKYGSNPFLEHTPTLGQDPGPVKCWYACATFTNGGTNFVVLDKFKVEGYRARARSKDDGPWVTDYDAMARKTCIRRLAPYLPMSVELAQAMQVDEEVTAFTPGVSDPEVLATLAGVDTGTGEVQQ | −9.467 | −9.467 |  | −9.467 | 
3 | SSAP_11: SEQ ID NO: 180; Bet Lactococcus phage phiLC3 (protein, listed as Lactococcus lactis) ANEIDIYDAKNLNTATVKKFLKGGGQASDEELAMLLAISRNQNMNPFMKEVYFIKYGSAAAQIVVSRDFYRKRAFQNPNFAGIEVGVIVLNKDGVLEHNEGTFKTKDQELVGAWARVHLKNTEIPVYVAVSYDEYVQMKNGQPNSMWTNKPCTMLGKVAESQALRMAFPAEFSGTYGEEEYPEPEKEPREVNGVKEPDRAQIESFDKENYAARKIEELKEKAQPQKEFVEEIGEAIDEITAEDF | −0.655 | −1.791 | −0.870 | −1.223 | −0.866
4 | SSAP_241: SEQ ID NO: 410; Antribacter gilvus (protein, listed as Antribacter gilvus) SADVVIRQHATELTSVLPSHLAEKGDGWLNAAVAAVRKDRNLWNAANSDPGAVMNALAEAARLGLQPGSKEYYLTVRGGKVLGIVGYQGEIELMYRAGAVSSVIVEPVFERDGFEYTPGVDDRPKHRIDWDADDRGPIRLAYAYAVMKDGAVSKVVVVNKTRIRRAKDASATAGKSHSPWTSDEVAMWMKTAAHDLAKWVPTSAEYIREQLRAVKEVEAEPARASDPRPEPVHIVEAQILDEDPFPNAPEDGAA | −9.530 | −0.640 | −3.561 | −5.085 | −2.720
5 | SSAP_114: SEQ ID NO: 283; Methylomonas rhizoryzae (protein, listed as Methylomonas rhizoryzae) SELLSALNAPETQKPQTLPAMLKQHQPRFKAIAPRDVDVTRFSAALMADVRSNQKLAECNPMTVLGAFIRSTQLGLEPGSQLGQAYFVPFKGECQLVIGYRGMIELAYRSGKVASISARTVYENDVFEWELGTDERITHKPATGDRGALVAVYAMAKLTTGGIHFEVLDLAEIEKAKRASKSSSFGPWKDHFEEMAKKTAIRRLFKYLPVGTDLTRAVALDEKAESGSQQNDIEAETVLDGEFYPAGGGNDG | −10.925 | −7.755 | −1.412 | −9.340 | 
6 | SSAP_279: SEQ ID NO: 448; Dorea sp. 42_8 (protein, listed as Dorea sp.) AVNNSLAKRDQSMKLSVYLQNDAVKKQINQVVGGKNGTRFISSIVSAVQSTPALQECTSPSIVNAALLGEALNLSPSPQLGQFYMVPFDNRKKGCKEAQFQLGYKGYIQLAERSGYYKKLNVLAIKEGELIRYDPLDEEIEVELIDDDVIREETPAMGYYAMFEYENGFCIQQKWRSEDFGTFRAGQNSGKGSLEVFFFLVQRF | −10.362 | −2.825 | −3.398 | −6.593 | −2.349
7 | SSAP_83: SEQ ID NO: 252 (protein) TLQAVCPTQDKAVESQLDQTKFELIKRTICKGTTDDEFQLFIHACKRTGLDPFMRQIFAVKRWDSAERREVMTIQTGIDGYRLIADRTGRYAPGRDAEFGYDAHGGLRWAKAYVKKMTPDGHWHEISATAFWTEYVQTTKDGRPTVFWMKKGHVMLSKCAEALALRKTFPAELSGIYTQEEMAQTMSLPDTKGDSQTIGSDKAYEIERSIDNDPEFKTQLLTRLQRAFGCKSFSDLPQDQFKNVKKVIENHQIKEKIA | −9.459 | −0.905 | −1.189 | −5.182 | −1.391
8 | SSAP_71: SEQ ID NO: 240 (protein) SNNELLAKPVEFEVNGEAVKLTGKTVKNFLVSGNGEVSDQEVVMFINLCKYQKLNPFLNEAYLVKFKSKSGPDKPAQVIVSKEAFMKRAEKHPNYEGFEAGIIVERDGQLVDIEGAIKLTNDKLVGGWARVYRSDRQKPITTRISLSEFSKGQSTWNSMPLTMIRKSAIVNAQREAFPETLGALYTEDDAKLDTTSSHDQEQVIEQEIKTKANQEVIDVEYTEESEQKSPQQEQTETTQAGPGF | −0.701 | −1.797 | −2.283 | −1.249 | −0.555
9 | SSAP_187: SEQ ID NO: 356; Staphylococcus warneri (protein, listed as Staphylococcus warneri) ATQNDFKNQITDKKENKPQQSTNPRQVASDLLERMKPEIAKALPAHMSQDRMTRIALSAVNSNPKLSEVILNNPTSFLGALMQSAQLGLEPNTNLGHAYLIPYGNIVQLQLGYLGLLELAYRSGKYQKIMAMPVYKDDFFEYQYGTDEKLNHIPAQQQTGDAVGYYAFYKLTNGGTHFVYWSRQKMNMHQQQYSKGGNVWRNNFDAMALKTVIKDVLKYAPKSIEMGEAVTSDNNNFDFKDGGDIIDVTDYETEEN | −0.498 | 0.257 | 0.239 | −0.120 | −0.164
10 | SSAP_77: SEQ ID NO: 246 (protein) TNNQLVEAKGDFLTNPQLLNSGIIRKYLDPQGKASDEELAYFIAQAKAQNLNPFTKEIYFIKYGTQPAQIVTAKSAFEKKADSHPQFDGKEAGVIYLLDGEIKYSKGAFIPKGAEILGGWAKVYRKDRTYPTETEVSFEEYDNSKIRARVKELTQQGKDVTYPVMNSYGKPIGENNWDTMPCVMIRKVALVSAYREAFPAELGASYEADEIQLDNTPKDITPQENREDVIARKMAQIEQFNKEQAHTDPEPTQTEEPIQGELLDGELEY | −10.167 | −10.167 |  | −10.167 | 
11 | SSAP_91: SEQ ID NO: 260; Proteus mirabilis (protein, listed as Proteus mirabilis) SNPPLAQADLQKTQGTEVKTKTKDQQLIHFINQPSMKTQLAAALPRHMTPDRMIRIVTTEIRKTPALANCDMQSFIGAVVQCSQLGLEPGNALGHAYLLPFGNGKAKSGQSNVQLIIGYRGMIDLARRSNQIISISARTVRQGDSFHFEYGLNENLTHVPGENEDSPITHVYAVARLKDGGVQFEVMTHNQIEKVRASSKAGQNGPWVSHWEEMAKKTVIRRLFKYLPVSIEMQKAVILDEKAEANVDQENASVFEGEFEEVGSNGN | −0.407 | 0.635 | 0.826 | 0.114 | −0.170
12 | SSAP_233: SEQ ID NO: 402; Actinoplanes italicus (protein, listed as Actinoplanes italicus) PETIANAVAQRDQSPTALVADYRNDFAAVLPSHLPPATFVRLAQGVLRRDQNLMRTAMNNPGSLMTAMLDCARLGHEPGTPAYYFVPIKGAIEGWEGYRGVIERIYRAGAVQSVRAEVVRENDFYEYEEGMPHPIHRYERFASPEQRGPLLGVWAYAVMLDGGMSRPVEMGREEVLAHRDMNPSNNRSDSPWKKWERSMWLKCAVHELEKWVPSSTEYRREIARMSAPQPAAAAAPVTYVPPQVGQRDAIEGEVAEDWPEPAEVPGGAQ | −0.220 | −2.628 | −0.424 | −1.424 | −0.063
13 | SSAP_66: SEQ ID NO: 235 (protein) TNQLAHKDFFNTPAVKQKFQEVLNGNERQFTASLLSIVNNNKLLARASNTSIMTAAMKAAVLNLPIEPSLGFAYIVPYGQDAQFQLGYKGLIQLAIRSGQFKAINSGKVYKAQFKSYDPLFETLDIDFTQPEDEVYGYFATFELVNGFKKLTFWTKEQAESHGKRFSKTYAKGPWSTDFDAMAQKTVLKSILSKYAPLSTEMQEGLISDNQTEEVETDPIDVTPKNEDTQTLLSDLMSDEAESETEKV | −0.205 | 0.370 | 0.407 | 0.082 | −0.040
